Experimental data reported in US20190076400A1 (PROTAGONIST THERAPEUTICS, published 2019).
Numbered stars: 1 amine (or outer) side, 2 acyl side, 3 side chain; on linkers, the order of the positions; unused ones are H or OH. Square brackets hold non-standard residues; d marks the D form. Phe(2,6-Me2,4-CONH2) = Cc1cc(C(N)=O)cc(C)c1C[C@H](N)C(=O)O; Bip = N[C@@H](Cc1ccc(-c2ccccc2)cc1)C(=O)O; Phe(4-CN) = N#Cc1ccc(C[C@H](N)C(=O)O)cc1; Phe(4-F) = N[C@@H](Cc1ccc(F)cc1)C(=O)O; Dmt = Cc1cc(O)cc(C)c1C[C@H](N)C(=O)O; hPhe = N[C@@H](CCc1ccccc1)C(=O)O; NMeβAla = CN(CCC(=O)[*:2])[*:1]; Tic = O=C(O)[C@@H]1Cc2ccccc2CN1; dTic = O=C(O)[C@H]1Cc2ccccc2CN1; β3hF = N[C@H](CC(=O)O)Cc1ccccc1; dNMeA = CN[C@H](C)C(=O)O; Aib = CC(C)(N)C(=O)O; Sar = CNCC(=O)O

B1: H-DMT-r-F-Sar-NH2 (peptide)
peptide: H-[Dmt][dR]F[Sar]-NH2
SMILES: Cc1cc(O)cc(C)c1C[C@H](N)C(=O)N[C@H](CCCNC(=N)N)C(=O)N[C@@H](Cc1ccccc1)C(=O)N(C)CC(N)=O
B2: H-DMT-r-Bip-K-NH2 (peptide)
peptide: H-[Dmt][dR][Bip]K-NH2
SMILES: Cc1cc(O)cc(C)c1C[C@H](N)C(=O)N[C@H](CCCNC(=N)N)C(=O)N[C@@H](Cc1ccc(-c2ccccc2)cc1)C(=O)N[C@@H](CCCCN)C(N)=O
B3: H-DMT-(D)Thr-G-bhF-Sar-NH2 (peptide)
peptide: H-[Dmt][dT]G[β3hF][Sar]-NH2
SMILES: Cc1cc(O)cc(C)c1C[C@H](N)C(=O)N[C@@H](C(=O)NCC(=O)N[C@H](CC(=O)N(C)CC(N)=O)Cc1ccccc1)[C@H](C)O
B4: H-DMT-r-W-N(Me)bAla-OH (peptide)
peptide: H-[Dmt][dR]W[NMeβAla]-OH
SMILES: Cc1cc(O)cc(C)c1C[C@H](N)C(=O)N[C@H](CCCNC(=N)N)C(=O)N[C@@H](Cc1c[nH]c2ccccc12)C(=O)N(C)CCC(=O)O
B5: H-DMT-N(Me)-a-F-Sar-NH2 (peptide)
peptide: H-[Dmt][dNMeA]F[Sar]-NH2
SMILES: Cc1cc(O)cc(C)c1C[C@H](N)C(=O)N(C)[C@H](C)C(=O)N[C@@H](Cc1ccccc1)C(=O)N(C)CC(N)=O
B6: H-DMT-dTic-F-Sar-NH2 (peptide)
peptide: H-[Dmt][dTic]F[Sar]-NH2
SMILES: Cc1cc(O)cc(C)c1C[C@H](N)C(=O)N1Cc2ccccc2C[C@@H]1C(=O)N[C@@H](Cc1ccccc1)C(=O)N(C)CC(N)=O
B7: H-DMT-a-Leu-bhF-Sar-NH2 (peptide)
peptide: H-[Dmt][dA]L[β3hF][Sar]-NH2
SMILES: Cc1cc(O)cc(C)c1C[C@H](N)C(=O)N[C@H](C)C(=O)N[C@@H](CC(C)C)C(=O)N[C@H](CC(=O)N(C)CC(N)=O)Cc1ccccc1
B8: H-DMT-G-G-bhF-Sar-NH2 (peptide)
peptide: H-[Dmt]GG[β3hF][Sar]-NH2
SMILES: Cc1cc(O)cc(C)c1C[C@H](N)C(=O)NCC(=O)NCC(=O)N[C@H](CC(=O)N(C)CC(N)=O)Cc1ccccc1
B9: H-DMT-Tic-G-bhF-Sar-NH2 (peptide)
peptide: H-[Dmt][Tic]G[β3hF][Sar]-NH2
SMILES: Cc1cc(O)cc(C)c1C[C@H](N)C(=O)N1Cc2ccccc2C[C@H]1C(=O)NCC(=O)N[C@H](CC(=O)N(C)CC(N)=O)Cc1ccccc1
B10: H-DMT-r-Phe(4-CN)-Sar-NH2 (peptide)
peptide: H-[Dmt][dR][Phe(4-CN)][Sar]-NH2
SMILES: Cc1cc(O)cc(C)c1C[C@H](N)C(=O)N[C@H](CCCNC(=N)N)C(=O)N[C@@H](Cc1ccc(C#N)cc1)C(=O)N(C)CC(N)=O
B11: H-DMT-N(Me)-a-Aba-G-NH2 (peptide)
peptide: H-[Dmt][dNMeA]XG-NH2
modifications: not fully specified (residue 3); printed as DMT-N(Me)a-Aba-G
B12: H-Phe(DMC)-G-G-bhF-Sar-NH2 (peptide)
peptide: H-[Phe(2,6-Me2,4-CONH2)]GG[β3hF][Sar]-NH2
SMILES: Cc1cc(C(N)=O)cc(C)c1C[C@H](N)C(=O)NCC(=O)NCC(=O)N[C@H](CC(=O)N(C)CC(N)=O)Cc1ccccc1
B13: H-DMT-dTic-G-F-Sar-NH2 (peptide)
peptide: H-[Dmt][dTic]GF[Sar]-NH2
SMILES: Cc1cc(O)cc(C)c1C[C@H](N)C(=O)N1Cc2ccccc2C[C@@H]1C(=O)NCC(=O)N[C@@H](Cc1ccccc1)C(=O)N(C)CC(N)=O
B14: H-DMT-(D)Tyr-G-bhF-Sar-NH2 (peptide)
peptide: H-[Dmt][dY]G[β3hF][Sar]-NH2
SMILES: Cc1cc(O)cc(C)c1C[C@H](N)C(=O)N[C@H](Cc1ccc(O)cc1)C(=O)NCC(=O)N[C@H](CC(=O)N(C)CC(N)=O)Cc1ccccc1
B15: H-Phe(DMC)-(D)Thr-G-bhF-Sar-NH2 (peptide)
peptide: H-[Phe(2,6-Me2,4-CONH2)][dT]G[β3hF][Sar]-NH2
SMILES: Cc1cc(C(N)=O)cc(C)c1C[C@H](N)C(=O)N[C@@H](C(=O)NCC(=O)N[C@H](CC(=O)N(C)CC(N)=O)Cc1ccccc1)[C@H](C)O
B16: H-DMT-a-ILeu-bhF-Sar-NH2 (peptide)
peptide: H-[Dmt][dA]I[β3hF][Sar]-NH2
SMILES: CC[C@H](C)[C@H](NC(=O)[C@@H](C)NC(=O)[C@@H](N)Cc1c(C)cc(O)cc1C)C(=O)N[C@H](CC(=O)N(C)CC(N)=O)Cc1ccccc1
B17: H-DMT-r-Homo-F-N(Me)bAla-OH (peptide)
peptide: H-[Dmt][dR]X[NMeβAla]-OH
modifications: not fully specified (residue 3); printed as H-DMT-r-Homo-F-N(Me)bAla-OH
B18: H-DMT-a-hF-Sar-NH2 (peptide)
peptide: H-[Dmt][dA][hPhe][Sar]-NH2
SMILES: Cc1cc(O)cc(C)c1C[C@H](N)C(=O)N[C@H](C)C(=O)N[C@@H](CCc1ccccc1)C(=O)N(C)CC(N)=O
B19: H-Phe(DMC)-Tic-G-bhF-Sar-NH2 (peptide)
peptide: H-[Phe(2,6-Me2,4-CONH2)][Tic]G[β3hF][Sar]-NH2
SMILES: Cc1cc(C(N)=O)cc(C)c1C[C@H](N)C(=O)N1Cc2ccccc2C[C@H]1C(=O)NCC(=O)N[C@H](CC(=O)N(C)CC(N)=O)Cc1ccccc1
B20: H-DMT-r-Phe(4-F)-Sar-NH2 (peptide)
peptide: H-[Dmt][dR][Phe(4-F)][Sar]-NH2
SMILES: Cc1cc(O)cc(C)c1C[C@H](N)C(=O)N[C@H](CCCNC(=N)N)C(=O)N[C@@H](Cc1ccc(F)cc1)C(=O)N(C)CC(N)=O
B21: H-DMT-(D)Asp-G-bhF-Sar-NH2 (peptide)
peptide: H-[Dmt][dD]G[β3hF][Sar]-NH2
SMILES: Cc1cc(O)cc(C)c1C[C@H](N)C(=O)N[C@H](CC(=O)O)C(=O)NCC(=O)N[C@H](CC(=O)N(C)CC(N)=O)Cc1ccccc1
B22: H-DMT-a-Aib-bhF-Sar-NH2 (peptide)
peptide: H-[Dmt][dA][Aib][β3hF][Sar]-NH2
SMILES: Cc1cc(O)cc(C)c1C[C@H](N)C(=O)N[C@H](C)C(=O)NC(C)(C)C(=O)N[C@H](CC(=O)N(C)CC(N)=O)Cc1ccccc1

biological target: δ-opioid receptor (DOR), Human-ORPD1 (human, UniProt P41143 1-372); assay: cell-based or functional assay
Sequence (P41143 whole entry, stated change not applied): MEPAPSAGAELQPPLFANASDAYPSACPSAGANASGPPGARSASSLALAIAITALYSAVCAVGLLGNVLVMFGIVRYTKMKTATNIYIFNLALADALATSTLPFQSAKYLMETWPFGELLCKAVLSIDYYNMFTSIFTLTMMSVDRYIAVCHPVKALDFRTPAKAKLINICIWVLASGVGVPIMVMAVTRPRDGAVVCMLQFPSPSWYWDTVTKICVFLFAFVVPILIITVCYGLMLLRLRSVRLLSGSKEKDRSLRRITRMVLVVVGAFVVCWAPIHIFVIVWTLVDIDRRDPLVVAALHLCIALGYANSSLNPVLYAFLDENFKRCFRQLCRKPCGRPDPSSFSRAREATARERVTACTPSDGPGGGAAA

**Q.** B1 was tested. Which “DOR EC50” value did it give?
**A.** ≤ 10 nM

**Q.** With B2 as the binder, how does the “DOR EC50” value read?
**A.** > 200 nM

**Q.** With B3 as the binder, how does the “DOR EC50” value read?
**A.** ≤ 1 nM

**Q.** Which “DOR EC50” value does the source give for B4 here?
**A.** ≤ 50 nM

**Q.** How did the “DOR EC50” value turn out when B5 was run?
**A.** ≤ 10 nM

**Q.** For B6, which “DOR EC50” value is on record?
**A.** ≤ 10 nM

**Q.** With B7 as the binder, how does the “DOR EC50” value read?
**A.** ≤ 50 nM

**Q.** With B8 as the binder, how does the “DOR EC50” value read?
**A.** ≤ 1 nM

**Q.** B9 was tested. Which “DOR EC50” value did it give?
**A.** ≤ 200 nM

**Q.** How did the “DOR EC50” value turn out when B10 was run?
**A.** ≤ 1 nM

**Q.** B11 was tested. Which “DOR EC50” value did it give?
**A.** ≤ 1 nM

**Q.** With B12 as the binder, how does the “DOR EC50” value read?
**A.** ≤ 1 nM

**Q.** How did the “DOR EC50” value turn out when B13 was run?
**A.** ≤ 1 nM

**Q.** For B14, which “DOR EC50” value is on record?
**A.** ≤ 1 nM

**Q.** How did the “DOR EC50” value turn out when B15 was run?
**A.** ≤ 1 nM

**Q.** Which “DOR EC50” value does the source give for B16 here?
**A.** ≤ 50 nM

**Q.** With B17 as the binder, how does the “DOR EC50” value read?
**A.** ≤ 1 nM

**Q.** Which “DOR EC50” value does the source give for B18 here?
**A.** ≤ 1 nM

**Q.** B19 was tested. Which “DOR EC50” value did it give?
**A.** ≤ 200 nM

**Q.** B20 was tested. Which “DOR EC50” value did it give?
**A.** ≤ 10 nM

**Q.** B21 was tested. Which “DOR EC50” value did it give?
**A.** ≤ 1 nM

**Q.** B22 was tested. Which “DOR EC50” value did it give?
**A.** ≤ 1 nM

biological target: µ-opioid receptor (MOR), Human-ORPM1 (human, UniProt P35372 1-400); assay: cell-based or functional assay
Sequence (P35372 whole entry): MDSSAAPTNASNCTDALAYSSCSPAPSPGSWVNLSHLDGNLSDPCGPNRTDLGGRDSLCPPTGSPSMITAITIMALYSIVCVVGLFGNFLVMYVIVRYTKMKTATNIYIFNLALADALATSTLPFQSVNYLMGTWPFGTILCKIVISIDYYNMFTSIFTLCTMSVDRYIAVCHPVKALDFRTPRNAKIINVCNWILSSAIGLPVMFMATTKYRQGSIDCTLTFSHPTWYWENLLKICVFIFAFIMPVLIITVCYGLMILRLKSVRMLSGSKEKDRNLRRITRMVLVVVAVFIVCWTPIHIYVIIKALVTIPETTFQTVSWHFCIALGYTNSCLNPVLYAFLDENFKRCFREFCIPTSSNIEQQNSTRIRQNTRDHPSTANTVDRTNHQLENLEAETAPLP

**Q.** How did the “MOR EC50” value turn out when B1 was run?
**A.** ≤ 1 nM

**Q.** With B2 as the binder, how does the “MOR EC50” value read?
**A.** ≤ 200 nM

**Q.** B3 was tested. Which “MOR EC50” value did it give?
**A.** ≤ 1 nM

**Q.** B4 was tested. Which “MOR EC50” value did it give?
**A.** ≤ 1 nM

**Q.** For B5, which “MOR EC50” value is on record?
**A.** ≤ 1 nM

**Q.** For B6, which “MOR EC50” value is on record?
**A.** ≤ 1 nM

**Q.** Which “MOR EC50” value does the source give for B7 here?
**A.** ≤ 1 nM

**Q.** With B8 as the binder, how does the “MOR EC50” value read?
**A.** ≤ 1 nM

**Q.** Which “MOR EC50” value does the source give for B9 here?
**A.** ≤ 200 nM

**Q.** How did the “MOR EC50” value turn out when B10 was run?
**A.** ≤ 10 nM

**Q.** Which “MOR EC50” value does the source give for B11 here?
**A.** ≤ 1 nM

**Q.** With B12 as the binder, how does the “MOR EC50” value read?
**A.** ≤ 1 nM

**Q.** B13 was tested. Which “MOR EC50” value did it give?
**A.** ≤ 1 nM

**Q.** Which “MOR EC50” value does the source give for B14 here?
**A.** ≤ 1 nM

**Q.** Which “MOR EC50” value does the source give for B15 here?
**A.** ≤ 10 nM

**Q.** How did the “MOR EC50” value turn out when B16 was run?
**A.** ≤ 1 nM

**Q.** B17 was tested. Which “MOR EC50” value did it give?
**A.** ≤ 1 nM

**Q.** How did the “MOR EC50” value turn out when B18 was run?
**A.** ≤ 1 nM

**Q.** B19 was tested. Which “MOR EC50” value did it give?
**A.** ≤ 200 nM

**Q.** With B20 as the binder, how does the “MOR EC50” value read?
**A.** ≤ 1 nM

**Q.** For B21, which “MOR EC50” value is on record?
**A.** ≤ 1 nM

**Q.** B22 was tested. Which “MOR EC50” value did it give?
**A.** ≤ 1 nM
